Entries after “also recorded” stand apart in the source; their conditions may differ.
Columns and labels:
[1] = Swelling ratio of hydrogels; type: physicochemical; conditions: n=3
Procedure: (§1) Peptides have been created containing a ligand for Notch-1 activation that self assembles into a hydrogel. For determination of swelling ratio, the hydrogels were created in a […] total volume and allowed to swell in 295 mM sucrose solution. After 24 h, the wet weight of the gels was measured. The gels were then lyophilized and the dry weight noted. Swelling ratio was calculated as the (wet weight−dry weight)/wet weight. […] The average Young's modulus for 1% and 2% hydrogels was 500 Pa and 1800 Pa respectively (FIG. 1A).

[2] = Self-assembly of peptides into hydrogel at physiologic pH and osmolarity; type: physicochemical; conditions: for Self-Assembly: peptide alone at 1 % w/v; for self-assembly into a hydrogel when mixed with peptide hydrogel R: mixed with R at a 1:10 ratio; for self-assemble at physiologic pH and osmolarity: peptide alone
Source text: JAG-1 (CDDYYYGFGCNKFCRPR)(SEQ ID NO: 1) can be incorporated into the self-assembling peptides to generate bioactive scaffolds with the potential to regulate Notch signaling in a ligand density dependent manner. The self-assembling sequence RADA (or R) (RARADADARARADADA)(SEQ ID NO: 2) with a 7 glycine linker following the terminal alanine is followed by the active sequence of the Notch ligand Jagged-1 (JAG-1) to create the fusion peptide (RJ). As a control, the JAG-1 portion may be replaced with the scrambled sequence (RCGPDCFDNYGRYKYCF)(SEQ ID NO:4) (RS) with no known cell surface binding site can be used as a control to check for the specificity of JAG 1 in activating Notch-1 signaling. […] These peptide scaffolds self-assemble at physiological pH and osmolarity (in 295 mM sucrose solution) into nanofiber hydrogels. After synthesis, the peptides can be purified by high pressure liquid chromatography on reverse-phase columns. Purity can be assessed by HPLC and the presence of a correct composition by amino acid analysis.
The self-assembling peptide (R) and the peptides with Jag-1 (RJ) or scrambled (RS) attached are weighed out to create hydrogels of 1-3% w/v, i.e., hydrogels with varying % concentration from 1 to 3% w/v peptide wherein R is combined with RJ or RS in a ratio of 1:10.
A sucrose solution (295 mM) is added to the peptides and sonicated. The RJ or RS peptide solutions are mixed with the R solution at 1:10 and allowed to form the hydrogel. The time required to form the hydrogel depends on the concentration of the gel. In certain embodiments, the disclosure relates to the synthesis of self assembling peptides which contain the active ligand JAG-1 attached to it. This enables easy dose manipulation of JAG-1 to achieve Notch-1 activation.

[3] = Atomic force microscopy measurement of Young's modulus of hydrogels; type: physicochemical; conditions: in comparison with unmodified hydrogels at both 1 and 2% w/v
Procedure: as §1
Cardiac progenitor cells (CPCs) were isolated from 2 month old male Sprague Dawley rats by digesting the heart with Collagenase followed by magnetic sorting for cKit positive cells. The CPCs were cultured on Ham's F12 supplemented with FBS, LIF, bFGF, L-Glutamine and antibiotics. Single cell cloning was performed by limiting dilution to obtain CPCs with >90% expression of cKit and the cardiac transcription factors nkx2-5 and gata-4. […] The Young's modulus of the hydrogels was determined using an MFP-3DBIO atomic force microscope (Asylum Research; Santa Barbara, Calif.), with a 4.74 μm diameter bead tippedsilicon nitride cantilever.

[4] = tested on: Cardiac progenitor cells (CPCs); test: qPCR gene expression of CPCs cultured in hydrogels; type: cell-based, rat; conditions: 48 h
Procedure: Cardiac progenitor cells (CPCs) were isolated from 2 month old male Sprague Dawley rats by digesting the heart with Collagenase followed by magnetic sorting for cKit positive cells. The CPCs were cultured on Ham's F12 supplemented with FBS, LIF, bFGF, L-Glutamine and antibiotics. Single cell cloning was performed by limiting dilution to obtain CPCs with >90% expression of cKit and the cardiac transcription factors nkx2-5 and gata-4. CPCs were cultured in self assembling hydrogels of various concentrations (1-3% w/v) with either empty, scrambled or JAG-1 peptide in 1:10 ratio for 48 hrs in Millicell Insets. qRT-PCRs were performed using Power SYBR green on the StepOne Plus Applied Biosystems machine. The Young's modulus of the hydrogels was determined using an MFP-3DBIO atomic force microscope (Asylum Research; Santa Barbara, Calif.), with a 4.74 μm diameter bead tippedsilicon nitride cantilever.
CPCs were clonally expanded and characterized to be >96% Notch1+, >90% c-Kit+, nkx2-5+(nk2 homeobox 5) and gata4+(GATA binding protein 4). CPCs were cultured in 1 or 2% (w/v) SAP hydrogels (1R, 1RS, 1RJ or 2R, 2RS, 2RJ) for 48 h.

[5] = tested on: Notch1; test: Notch1 activation in CHO cells with Notch1-responsive YFP expression, 3D culture in hydrogels; type: cell-based; conditions: 48 h
Procedure: (§2) CHO cells with Notch1-responsive YFP expression were cultured in media containing 20 or 40 μm R, RS or RJ for 48 h. […] These cells were also cultured in 3D in 1-3% w/v hydrogels composed of R, RS or RJ for 48 h.

[6] = tested on: embryoid bodies (EBs) from mouse embryonic stem cells; test: qPCR gene expression of mouse embryoid bodies cultured in 1% hydrogels; type: cell-based; conditions: mouse EBs in 1% hydrogels
Procedure: To determine if gene expression changes in response to hydrogel-mediated Notch1 activation were conserved between stem/progenitor cells, day 2 embryoid bodies (EBs) from mouse embryonic stem cells were cultured in low concentration (1%) hydrogels for 48 h.

[7] = tested on: Notch1; test: Notch1 activation in CHO cells with Notch1-responsive YFP expression, 2D culture with peptide in media; type: cell-based; conditions: media containing peptide at 40 μm, 48 h
Procedure: as §2

| Substance | effect of peptide addition on network structure (swelling ratio) [1] | Self-Assembly [2] | effect of addition of peptide to the SAP on Young's modulus [3] | self-assembly into a hydrogel when mixed with peptide hydrogel R [2] | self-assemble at physiologic pH and osmolarity [2] | also measured |
| --- | --- | --- | --- | --- | --- | --- |
| RARADADARARADADA(G7)(SCR-1) (RARADADARARADADAGGGGGGGRCGPDCFDNYGRYKYCF) [RS, reference compound] | no significant effect | no | did not alter the Young's modulus |  |  |  |
| RCGPDCFDNYGRYKYCF [SCR-1] |  |  |  | self-assembles into a hydrogel | do not self-assemble |  |
| RARADADARARADADA(G7)(JAG-1) (RARADADARARADADAGGGGGGGCDDYYYGFGCNKFCRPR) [RJ] | no significant effect | no | did not alter the Young's modulus |  |  | Notch1 signaling in CPCs ([4]; 1% hydrogels): activates Notch1 signaling; Notch1 signaling in CPCs ([4]; 2% hydrogels): activates Notch1 signaling; endothelial and smooth muscle gene expression ([4]; CPCs in 1% hydrogels): promotes; expression of Hey1 (Notch1 downstream target) ([4]; CPCs in 1 or 2% hydrogels, qPCR): increased expression; cardiac gene expression ([4]; CPCs in 2% hydrogels): promotes; Notch1 activation (YFP expression) ([5]; 2% w/v hydrogel): maximum Notch1 activation; also recorded: highest levels of Notch1 activation; Notch1 activation (YFP expression) ([5]; further increase to 3% w/v hydrogel): did not promote Notch1 activation; endothelial and smooth muscle gene expression [6]: promotes; Notch1 activation (YFP expression) [7]: significant increase |
| CDDYYYGFGCNKFCRPR [JAG-1] |  |  |  | self-assembles into a hydrogel | do not self-assemble |  |
| H2N-RARADADARARADADA-OH (H-RARADADARARADADA-OH) [unmodified/empty control] |  | yes |  |  |  |  |

Source: patent US9840693B2, “Polypeptide hydrogels and uses related thereto” (Emory University, priority 2014, dated 2017)
